According to paper PMC3089514 (The Journal of Biological Chemistry, 2011):

B1: Rluc-tagged β-arrestin 1 wild type (natural protein, UniProt P17870 1-418, looked up)
chain: MGDKGTRVFKKASPNGKLTVYLGKRDFVDHIDLVEPVDGVVLVDPEYLKERRVYVTLTCAFRYGREDLDVLGLTFRKDLFVANVQSFPPAPEDKKPLTRLQERLIKKLGEHAYPFTFEIPPNLPCSVTLQPGPEDTGKACGVDYEVKAFCAENLEEKIHKRNSVRLVIRKVQYAPERPGPQPTAETTRQFLMSDKPLHLEASLDKEIYYHGEPISVNVHVTNNTNKTVKKIKISVRQYADICLFNTAQYKCPVAMEEADDTVAPSSTFCKVYTLTPFLANNREKRGLALDGKLKHEDTNLASSTLLREGANREILGIIVSYKVKVKLVVSRGGLLGDLASSDVAVELPFTLMHPKPKEEPPHREVPEHETPVDTNLIELDTNDDDIVFEDFARQRLKGMKDDKEEEEDGTGSPRLNDR
B2: Rluc-tagged phosphorylation-independent β-arrestin 1 mutant R169E (natural protein, UniProt P17870 1-418, looked up)
chain: MGDKGTRVFKKASPNGKLTVYLGKRDFVDHIDLVEPVDGVVLVDPEYLKERRVYVTLTCAFRYGREDLDVLGLTFRKDLFVANVQSFPPAPEDKKPLTRLQERLIKKLGEHAYPFTFEIPPNLPCSVTLQPGPEDTGKACGVDYEVKAFCAENLEEKIHKRNSVRLVIEKVQYAPERPGPQPTAETTRQFLMSDKPLHLEASLDKEIYYHGEPISVNVHVTNNTNKTVKKIKISVRQYADICLFNTAQYKCPVAMEEADDTVAPSSTFCKVYTLTPFLANNREKRGLALDGKLKHEDTNLASSTLLREGANREILGIIVSYKVKVKLVVSRGGLLGDLASSDVAVELPFTLMHPKPKEEPPHREVPEHETPVDTNLIELDTNDDDIVFEDFARQRLKGMKDDKEEEEDGTGSPRLNDR
B3: Rluc-tagged β-arrestin 2 wild type (natural protein, UniProt P32120 1-420, looked up)
chain: MGEKPGTRVFKKSSPNCKLTVYLGKRDFVDHLDKVDPVDGVVLVDPDYLKDRKVFVTLTCAFRYGREDLDVLGLSFRKDLFIANYQAFPPTPNPPRPPTRLQERLLRKLGQHAHPFFFTIPQNLPCSVTLQPGPEDTGKACGVDFEIRAFCAKSLEEKSHKRNSVRLVIRKVQFAPEKPGPQPSAETTRHFLMSDRSLHLEASLDKELYYHGEPLNVNVHVTNNSTKTVKKIKVSVRQYADICLFSTAQYKCPVAQVEQDDQVSPSSTFCKVYTITPLLSNNREKRGLALDGKLKHEDTNLASSTIVKEGANKEVLGILVSYRVKVKLVVSRGGDVSVELPFVLMHPKPHDHIALPRPQSAATHPPTLLPSAVPETDAPVDTNLIEFETNYATDDDIVFEDFARLRLKGLKDEDYDDQFC
B4: Rluc-tagged phosphorylation-independent β-arrestin 2 mutant R170E (natural protein, UniProt P32120 1-420, looked up)
chain: MGEKPGTRVFKKSSPNCKLTVYLGKRDFVDHLDKVDPVDGVVLVDPDYLKDRKVFVTLTCAFRYGREDLDVLGLSFRKDLFIANYQAFPPTPNPPRPPTRLQERLLRKLGQHAHPFFFTIPQNLPCSVTLQPGPEDTGKACGVDFEIRAFCAKSLEEKSHKRNSVRLVIEKVQFAPEKPGPQPSAETTRHFLMSDRSLHLEASLDKELYYHGEPLNVNVHVTNNSTKTVKKIKVSVRQYADICLFSTAQYKCPVAQVEQDDQVSPSSTFCKVYTITPLLSNNREKRGLALDGKLKHEDTNLASSTIVKEGANKEVLGILVSYRVKVKLVVSRGGDVSVELPFVLMHPKPHDHIALPRPQSAATHPPTLLPSAVPETDAPVDTNLIEFETNYATDDDIVFEDFARLRLKGLKDEDYDDQFC

Key:
Assay in all cases: FRET or BRET
[1] = target: T1, EGFP-tagged human orexin receptor 2 (human, UniProt O43614 1-444)
T1 sequence (looked up): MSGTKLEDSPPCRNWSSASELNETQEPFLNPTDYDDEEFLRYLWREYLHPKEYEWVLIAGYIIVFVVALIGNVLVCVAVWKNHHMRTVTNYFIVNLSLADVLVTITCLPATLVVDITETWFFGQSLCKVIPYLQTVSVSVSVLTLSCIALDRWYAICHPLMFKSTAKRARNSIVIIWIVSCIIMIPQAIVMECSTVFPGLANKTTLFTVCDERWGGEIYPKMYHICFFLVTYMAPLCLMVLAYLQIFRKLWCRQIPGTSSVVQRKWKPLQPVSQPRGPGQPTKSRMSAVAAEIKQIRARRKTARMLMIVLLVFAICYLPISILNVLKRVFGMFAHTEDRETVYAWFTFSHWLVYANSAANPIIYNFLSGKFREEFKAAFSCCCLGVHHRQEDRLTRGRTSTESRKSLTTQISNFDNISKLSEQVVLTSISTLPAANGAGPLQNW

[2] = target: T2, EGFP-tagged human orexin receptor 1 (human, UniProt O43613 1-425)
T2 sequence (looked up): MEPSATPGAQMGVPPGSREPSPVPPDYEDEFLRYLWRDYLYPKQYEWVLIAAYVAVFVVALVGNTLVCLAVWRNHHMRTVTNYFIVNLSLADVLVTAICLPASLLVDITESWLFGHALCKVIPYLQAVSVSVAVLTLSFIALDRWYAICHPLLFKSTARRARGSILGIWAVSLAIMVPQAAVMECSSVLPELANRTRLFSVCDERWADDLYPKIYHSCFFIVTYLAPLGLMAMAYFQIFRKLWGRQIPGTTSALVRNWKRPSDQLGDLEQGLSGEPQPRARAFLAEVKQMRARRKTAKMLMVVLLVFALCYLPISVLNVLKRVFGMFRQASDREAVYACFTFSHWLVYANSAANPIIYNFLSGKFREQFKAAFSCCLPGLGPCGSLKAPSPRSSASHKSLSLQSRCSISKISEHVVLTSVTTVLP

[3] = target: T1, EGFP-tagged human orexin receptor 2; remark: listed apart in the source
[4] = target: T2, EGFP-tagged human orexin receptor 1; remark: listed apart in the source

| Binder | EC50 of the agonist OxA for receptor-β-arrestin BRET [1] | EC50 of the agonist OxA for receptor-β-arrestin BRET [2] | EC50 of the agonist OxB for receptor-β-arrestin BRET [3] | EC50 of the agonist OxB for receptor-β-arrestin BRET [4] |
| --- | --- | --- | --- | --- |
| B1 | 376 nM | 777 nM | 334 nM |  |
| B2 | 139 nM | 412 nM | 228 nM | 3770 nM |
| B3 | 215 nM | 719 nM | 384 nM |  |
| B4 | 162 nM | 401 nM | 278 nM | 3790 nM |
